Results reported in patent US20050114927.

Molecular target: Yeast wild-type L3 incorporated into ribosomes of wild-type cells

B1: Pokeweed antiviral protein (PAP) (protein)
chain: VNTIIYNVGSTTISKYATFLNDLRNEAKDPSLKCYGIPMLPNTNTNPKYVLVELQGSNKKTITLMLRRNNLYVMGYSDPFETNKCRYHIFNDISGTERQDVETTLCPNANSRVSKNINFDSRYPTLESKAGVKSRSQVQLGIQILDSNIGKISGVMSFTEKTEAEFLLVAIQMVSEAARFKYIENQVKTNFNRAFNPNPKVLNLQETWGKISTAIHDAKNGVLPKPLELVDASGAKWIVLRVDEIKPDVALLNYVGGSCQTTY
association with isolated ribosomes (immunoblot with antibody against PAP): Both PAP and PAPx were associated with ribosomes in wild-type cells
